2 substances from article PMC9793359 can be followed below.

Assay [1] deals with Flag-tagged nsp8 of SARS-CoV-2 (SARS-CoV-2) (UniProt P0DTD1). Description: co-IP.
Assay [2] concerns the target Flag-tagged nsp7 of SARS-CoV-2 (SARS-CoV-2) (UniProt P0DTD1). Description: co-IP.

In the case of “HA-tagged nsp12 T20E mutant (natural protein)”, the increase in co-precipitated complex against wild type in assay [1] and in assay [2] was 2 fold in each case.
For “HA-tagged nsp12 T20A mutant (natural protein)”, the decrease in co-precipitated complex against wild type in assay [1] and in assay [2] was 33% in each case.
